Experimental findings from patent publication US20200325236A1 (REYOUNG SUZHOU BIOLOGY SCIENCE AND TECHNOLOGY, published 2020) are described below.

Test [1] has as its target cynomolgus monkey 4-1BB protein (cynomolgus monkey). As to the kind of experiment: ELISA, cynomolgus monkey 4-1BB coated at 1 ug/mL, HRP goat-anti-human IgG detection. How it is done:
(§1) The cross-reactive activity of the antibody with cynomolgus monkey 4-1BB molecules is determined by ELISA. The ELISA comprises steps of coating the human 4-1BB or cynomolgus monkey 4-1BB (1 μg/mL) with the ELISA plate, incubating overnight at 4 DEG C.; washing three times with PBST (0.1% Tween 20), blocking with 3% BSA for 1 h; washing three times, adding the purified anti-human 4-1BB antibody prepared in the embodiment 2 and incubating for 1 h; washing three times and adding horse radish peroxidase (HRP) labeled goat-anti-human IgG (1:2000 dilution) and incubating for 1 h; washing three times, then adding the substrate solution (TMB) and developing the color at room temperature in the dark; and finally, adding the stop solution (2N H₂SO₄) and reading the optical density (OD) value at 450 nm.
A general note: In an ELISA, binding on a coated surface is turned into a signal by an enzyme label.

The target of test [2] is T1, human OX-40 protein (human, UniProt P43489 29-214, limits assumed).
T1 construct: Homologous family member used as the specificity control
T1 sequence (looked up): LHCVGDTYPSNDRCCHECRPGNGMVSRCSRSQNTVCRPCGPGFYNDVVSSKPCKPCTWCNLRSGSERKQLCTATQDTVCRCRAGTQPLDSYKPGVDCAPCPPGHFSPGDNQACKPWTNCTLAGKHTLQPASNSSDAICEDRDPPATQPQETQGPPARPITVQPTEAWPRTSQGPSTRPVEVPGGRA
Nature of the test: ELISA, plate coated with human OX-40 protein (1 ug/mL), HRP goat anti-human IgG, OD 450 nm.

Test [3] has as its target T2, human 4-1BB protein (human, UniProt Q07011 24-186, limits assumed).
T2 construct: Coating protein in the ELISAs of Embodiments 4 and 5; also called h4-1BB
As to the kind of experiment: ELISA, plate coated with human 4-1BB protein (1 ug/mL), HRP goat anti-human IgG, OD 450 nm.

Test [4] concerns the target T2, human 4-1BB protein. Nature of the test: ELISA of binding activity before and after humanization; the coated antigen is not named there, taken as 4-1BB from the legend and axis.
Test [5] deals with T3, human 4-1BB-Fc fusion protein (human, UniProt Q07011 24-186).
T3 construct: Antigen amine-coupled to the Biacore chip; also called h4-1BB-Fc fusion protein; h4-1BB; not shown: Fc part
Nature of the test: SPR, Biacore T200, h4-1BB-Fc amine-coupled to chip, antibody 0.3125-5.0 ug/mL as analyte. As to the method:
Affinity of the antibody: determining binding kinetics of the purified antibody which is prepared in the embodiment 2 and the h4-1BB by using BIAcore T200; coupling 1 mg/mL antigen (h4-1BB-Fc fusion protein) to the surface of a CMS chip by using an amino coupling method, binding at 30 μL/min for 300 s when the concentration of the antibody is within 0.3125-5.0 μg/mL and then dissociating for 300 s; and analyzing data recorded by the Biacore T200 by using Biacore T200 Evaluation Software, wherein analysis results are as shown in Table 1.
On the technique in general: SPR reads the build-up and loss of mass on a sensor chip optically.

In test [6] the target is T2, human 4-1BB protein. As to the kind of experiment: ELISA, human 4-1BB coated at 1 ug/mL, HRP goat-anti-human IgG detection. How it is done: as §1

B1: ab1 chimeric antibody (anti-human 4-1BB antibody ab1) (antibody, human IgG1, V domains shown)
VH: QVQLQQSGAELVRPGTSVKISCKASGYAFTNYWLGWVKQRPGHGLEWIGDIYPGNGNSYYNEKFKGRATLTADKSSSTVYMQLSSLTSEDSVVYFCTRSSSYYRDVMDYWGQGTSVTVSS
VL: DIQMTQSPASLSASVGETVTITCRASENIYSYLVWYQQKQGKSPQLLVYNAKTLAEGVSSRFSGSGSGTQFSLKINSLQPEDFGSYYCQHHYGTPLTFGAGTKLELKR
notes: also called anti-h4-1BB chimeric antibody; anti-h4-1BB monoclonal antibody
As usually defined, the EC50 is the concentration that produces a half-maximal response. A word on the EC50 (read off the curve): it is the concentration that produces a half-maximal response. By Kd is commonly meant the constant that tells how readily two partners part at equilibrium. As a reminder, the koff is a measure of how fast the partners let go of each other. What is called kon is a measure of how fast the partners come together. Take B1: the midpoint of the response in test [1], the EC50, lay at 2.67 nM. In addition, the binding result in test [2] was “no binding”. Moreover, the “EC50 (read off the curve)” value in test [3] was roughly 0.1 µg/mL. Moreover, the “EC50 (read off the curve)” value in test [4] was roughly 0.09 µg/mL. Moreover, in test [5], binding was characterised by a dissociation constant (Kd) of 0.0934 nM, the dissociation rate constant (koff) was determined as 1.37e-05 s⁻¹ and the kon is 146000 M⁻¹ s⁻¹. In addition, the EC50 in test [6] is 0.67 nM.

B2: Humanized 4-1BB antibody (antibody, V domains shown)
VH: QVQLVQSGAEVKKPGASVKVSCKASGYAFTNYWLGWVRQAPGHGLEWMGDIYPGNGNSYYAQKFQGRVTMTRDKSSSTVYMELSSLRSEDTAVYFCTRSSSYYRDVMDYWGQGTLVTVSS
VL: DIQLTQSPSFLSASVGDRVTITCRASENIYSYLVWYQQKPGKAPKLLIYNAKTLAEGVPSRFSGSGSGTEFTLTISSLQPEDFATYYCQHHYGTPLTFGAGTKLEIKR
notes: ab1 after humanization by template replacement with back mutations; also called humanized anti-human 4-1BB antibody; ab1 humanized antibody
Regarding B2, in test [4], the half-maximal effective concentration (EC50 (read off the curve)) is roughly 0.05 µg/mL.
